# Experiment: label from the status in PepcDB records
row,Sequence,protein production
1,MKKEAESLIEKEHGTNPKISRYWIQRYDLFSKYDQGIEMDEEGWYSVTPEEIAIKQAERCRGKVVIDCFSGVGAIDIDPMKIALAMNNAKVYGVANRIDFVTGDFMQLAPSLKGDVLFLSPPWGGPTYSKVESYKLDMLLPRDGGVERVDSLTHESHNMTRSMKLKKRSRLKKEVKSTIEKDNGRRHKITKYWIQRYDLFSRYDQGIEMDEEGWYSVTPEEIAIKQAQRYRGKVVIDCFSGVGGNTIQFAKVCSSVVAIDIDPVKVELAMNNAMVYGVANRVDFVIGDFIQLAPSLKGDVVFLSPPWGGPMYRDFESYNLDMLQPRDGYSLFQIAQSITPNIIMFLPRNVDLAQVEELAWLSSPPLNLEIEENFVGGRMKAVTAYFSCNAV,not failed
2,MKKFFIIGTDTEVGKTYISTKLIEVCEHQNIKSLCLKPVASGQSQFSELCEDVESILNAYKHKFTAAEINLISFNQAVAPHIIAAKTKVDISIENLKQFIEDKYNQDLDILFIEGAGGLLTPYSDHTTQLDLIKALQIPVLLVSAIKVGCINHTLLTINELNRHNIKLAGWIANCNDSNIKYIDEQINTIEELSGYKCSAKISRNADYLDFIDLSKILISPEENE,not failed
3,MKKFLFDLFPLILFFVAYRYADIYAATAVAITASIAQILWLRLTGKAIEGMHWINLSVIVIFGGATLWLHSDVFIKWKPTVLYWLFGGALLGARYLFGRNLVRRLLGKQIALPDPVWERLNLSWALFFVAAGAVNLYVAFSGHFTESQWVNFKVFGLMGLLVAFVIAQSLWLGKHLQASDTPDQDRNED,not failed
4,MKKFLFILSLFCVLSYAYELKLNANITALKLDKQNLYIGTDKGEILQYNIKDKSLKELLSLPKIKNYYGDDFAKIYNIDIFKHTLLILSEGDFGAKNLSFYKENLQIKKLEENSIIKAFFINENTYLLISIGSEIELIDKSLKNIKKFNFSHSSLNDAVLNEDKSRLIAGFESGEVELFDLKNWKMLKNYDKMHKDNIYQVDFKNNVILSCGTDRRIGVVKNEEQNFLQKDFLIYTCALSPSGEFAVYSDNEAGVSEVFSTSDFKPVKTFNNENLMSEFIIFLNNKDFIVSGFGDSIMFRSIDE,failed
5,MKKFLSFISFATIVSLVLSVFAKPYTEILRFKTTQQIAPRTYYEKYELLTDEGFVDINCIKLDLIDGGFDFDVLKSKVANTGDFVYNMVSSQIDKNPIAAINANFFYTNTKTDYNKIWPIGISVSGGKILSSPNNKQNTFPAFVYTTSNEILFDYINGLLYKLVNLDSGYEFKIAHVNKFTGDLTYPILFTGDYVQKTIGNKYKGIVELIIKDGIIKDIREEKQTVALDKNEYLLVATGNYAKNLKANFKVGDKVSLKIDLSIPLEKIKAAASGNTFLLKDGKIPSFTHEIAGRHPRSAIGIDKTGRYLYLVAVDGRNGKSIGLSQGELASFLQSIDVWTAINLDGGYSTQLIAKDNDGKFKAFYNIGETRKVFDSIAAFYKYRDDKIATFYIDCPDRVFAGEEYPIKVYAKDRFYNTITYDAVYLKVYQDAYEIDIKDGTFIPYKDGVVTISCVYEDVYQKAFAQKKISVYKPEILTTNKKQLYLLPGESARLRFYIKDKLGHFKEIDPRKVQAEKNPAFEFKDGSFIAKSNFRGFVTFSYKDLKCSIPVGIGETLQLLRSFDYLALSWPKGVSMFLSSKNKTQGKYSNKVYFSVSSTKGKSFKLNFKTPVDLTNINKISFDLCAKNVKVYLGFKMPNGTQKEVEIPQSKSDNFKSYSLNVESYKTLDYILLIPQKTQGYIWIDNLKGNVVNLPPVEAINQYVAKFDSKLAKSSVILLTKSFESLPSDTKKKVESNLGSYLKCYNLEKGNPPYEKNEKFNIVFLRTKSGSILDFSFYQWIRIKNLSAEKKPLIVVLDIPFESLKQNEKDILIRLLKSRKAPSMIICTTSDYTRVERYDTLYIGYASSNDLLAKSSTKSVNLACDVEKGYIYLARGY,failed
6,MKKIAVFADVQNLYYTVRQAYGCHFNYAALWADISKRGEIVHAFAYAIDRGDSKQQQFQQILRNLGFTVRLKPYIQRSDGSAKGEWDVGITIDIMDFAPQVDEVVLASGDGDFDMLLDRVISKHGVEAVAYGVPGLTANSLIRAASRYVPIEGALL,not failed
7,MKKIEIFDPAMCCPTGLCGTNINPELMRIAVVIESLKKQGIIVTRHNLRDEPQVYVSNKTVNDFLQKHGADALPITLVDGEIAVSQTYPTTKQMSEWTGVNLD,not failed
8,MKKIFYISLGFISLGIGIAGIVLPVVPTTPLVLLSAFCFSRSSEKFDIWLRQTKVYKYYAADFVESRSIAPARKKSMIWQIYILMGISIYFAPLMWLKLGLLIGTIVGTYVLFYVVPDKIDE,failed
9,MKKIGIIGAGGIARAHATALSTIKNAELVGVYDINQQNAESFVKTFGGKSFENVDELIDASEGLIVASPNFCHKEHALQALGKHKHVLCEKPMAISLEEASIMKDTAERLSVRASMGFNYRYLSYVNILKSLIINNELGNILSIKVHFKKNSALRRKKFTWRDDANSKKTSGSLGDLGIHLIDMVWYLFESDFITESVRAKMNTNVKTKEDKQVLVDDYAEIYGQLRNKVFVNIITSKCSVPEDCGFSIEVVGHKKEFKYHTGNPHVYKLIDGLNVVDCPVPQSLLNDPPNEFYGWADSFRSELINWIASTQNDWVEIPSFSDGFRSQEVLEMFFEKDS,failed
10,MKKINSAVLSIASNSMLIIFKLTAGITMNSISVLSEGVHSSIDLIASLIAFFSIKKSSLKEDDDHPFGHGKYENVSGFVEAILIMFAAIMIIYEAFNKLVSNSHVKNIDSGIYIMLISSAVNLFISIILLKSSKDTNSIALEADGMHLFTDFFTSLGVFLGLVLLKLTNIKIIDSITAFLVAILIIKTAVDLIKKSLRDLVDSSLDKDDINKIVKIVKKYPNIKEYHKLRTRRCGNTREIDIHIQIVGTDSLKETHDICSSIEDEIRRVFPDSCTVIHAEPYIEKFHKKSLT,failed
11,MKKITIISGHPNHESSISNKAILEYLESNVMESQLNIRKLEDLNTHFEFNVIQEQEALLQADTIIFQFPLFWYSFPALMKKWIDDVICYGFAFGGEKGAQLKDKQFIFSFTIGGQESAYGNEKEIALTIDELLKPLKQMLRYCQVKDINYVYSHNMLYIPDMYGSIEDINVRSECHAIKLLSMVN,failed
12,MKKKKYLKWWIAAVSAVFIVGAGIFVYTQYKAAQTSGDVATKDGTSASASDITWNGKTYSYNEHLSNFLFLGIDTKEKAETKTGQADAGQADALYLLSWNRLEGDITVISIPRDTMTQIETFGPGGKSLGKSKDHISLSYAYGDGGYESCELAENAVSELLYGLPIDGYCALNMDGLPVLTDSVGGVTVTVPNDSLAEVDPGYAKGAVVTLKGEDTEQFVRYRNTEISQSAIARMERQQEYIRAFGEALKKASADKALVTDLYKAIEPYMVTNMGKSRFVDLTESVSEGKKVNRWTIPGEGIQGKEYDEYVVDDDALYEKTVETFYVEKK,failed
13,MKKKKYVNSGTVTLLSFAVESECTFLDYIKGGTQINFTVAIDFTASNGNPSQSTSLHYMSPYQLNAYALALTAVGEIIQHYDSDKMFPALGFGAKLPPDGRVSHEFPLNGNQENPSCCGIDGILEAYHRSLRTVQLYGPTNFAPVVTHVARNAAAVQDGSQYSVLLIITDGVISDMAQTKEAIVNAAKLPMSIIIVGVGQAEFDAMVELDGDDVRISSRGKLAERDIVQFVPFRDYVDRTGNHVLSMARLARDVLAEIPDQLVSYMKAQGIRPRPPPAAPTHSPSQSPARTPPASPLHTHI,failed
14,MKKKNKLLFILGIIGPGLITVNAGNDAGGIATYATVGASYGYKMLWGLLLITFSLAIIQEMNARMAVVTGKGLSDLIRENYGVKWSLFAMCILFIANFGVCVGDFAGIAASLELFGISKYITVPIMAFLVWFVITKGSYEKTEKVFLAFTFVFFTYIITCIKVHPNWNVVMKATITPSLSFTKGYVLTLIGMIGTTITPYMQFYLQSSVVDKGLSVKEYKYEKIDVYLGAIWGDLVSFFIIVCTAVTLYKAGIKIDSAEQAAMALKPLAGNYATILFAAGLFGASVLATMVIPLSTTYAICEAFGFESGLDNSFSEAKTFYGIFTFMILFSAALVLVPKLSLVGIMLITQQIAGILSPVILIFMVLLINNKDIMGKYINNKLQNVIVYLTVAFIIILSLILFVSPIIDKLM,failed
15,MKKKYFLCVFAVILFFTGFLFGNSPVNAAETDTSNVTYNYIDISTLTETQKNSIIKGNPNETLTNDYENYSFVYQKNTSEPTTNTDNTSDNNKNQNGTLLKAGDVGPNSYLIILGFILFGSGIGLLTLKKRHARQLLVFLVVLGGSSLLVGSIVQATENSNLKTQESQTVAKGTKETKQPESMEGYTYVGYIHTSKNNTPPVVEKGTVTVNYQDEQGNSLATSETLEGDIDQPYQTATKNIEGYQLKEVNGNTTGTFTEKAQVVTYVYQKVPVATVTVKYLDQDGNKIHDPQTISGNIGEPYDASTDKYKLRIEGYTLDTTKLPNNANGTFTNQAIEVTYIYTKEAQDVKITIKFVDSNGDPFVLTDLTTYKNGDLVPIYPNLDQYHMRLNYNQEIYNQGEAVPDIVIPAKEGETYSLPERMTFNILDDQGKQIPYVISQNADLSSTGIERWENYLSIPTNREGTLTSEDVVVTYQILVYGVMIPEP,failed
16,MKKLFMSAVALLFAGALWAQENPLWMRHCAISPDGTTIAFTYKGDIFTVPVSGGKATQITTNPAFDTTPIWSPDSKQIAFASDRMGSMDVFIVSKDGGEPRRLTTFSGGETPVAFTDAGHILFTADIMPSTEDAGFPSNGQFQQIYQIPVSGGRPVMFSSMPMECISINKEGTILYQDKKGYEDYWRKHQKSPIARDIWMLRPGQTPRYEKQTTFIGEDREPVWAPDGKSFYYLSEENGTFNVYQRTPGSDTSKQVTHHKQHPVRFLSMASNGNLCYGFDGEIYTLAPGGKPQKVSVKILSDRNDKDLIRQIKTSGATEMAVSPDGKEVAFILRGDVYVTSVEYKTTKQVTNTPCQERGIDFAPDGRTLVYASERGGLWQLYTSTIVRKDEKQFTYATELKEERLTNSDIASFNPKYSPDGKEIAFLENRTAIRVINLKTKKVRTVMDAQYQYSYSDGDQWFEWSPDSKWILSEFIGIGGWNNKDIVLLNADGKGEMHNLTESGYSDGNAKWVLGGKAMVWFSDRAGYRSHGSWGAQYDAYIMFFDVDAYDRFRMNKEDLALLEEAEKAEKAEKEKAEKKKKENKKDDKKKDAKEKNKKDGDEEKKEEVKPLKFDLDNRFDRIVRLTVNSSFMGDAVLTPKGDKLYYLAAFESGYDLWEHDLKENSTKILLKGVGGGSLLPDKKGENIFMCTGGGMKKIEIAGSKTTPIAFESFFDYQPGGERAYIFDHVWQQVDDKFYVKDLQGVDWPLYKKSYEKFLPYINNNYDFAELLSEMLGELNASHTGARYSGAGGALATAALGVFYDDTYNGDGLKIKEIIEQGPFTLKKTDVKPGCIIEKVDGTLIKKGEDYFPLFEGKVGRKVLLSVYDPATKKRFEETVKAISYGAQRELLYKRWVERNRKKVEELSGGRLGYVHIKGMDSQSFRKMYSELLGRYRNKEAVVVDVRHNGGGWLHDDVVTLLSGKEYQRFVPRGQYIGSDPFNKWLKPSCMLVCEDNYSNAHGTPYVYKTLGIGKLVGTPVAGTMTAVWWERQIDPSLVFGIPQVGCMDMQGNYLENHTLEPDVLIYNEPAASLKGEDAQLKAAVDCLLKELPKK,failed
17,MKKLIIAALGLTLILSGCAPKLDSNDKVVQKDDKKAETGIMTKNQISSNYYKTVLPYKASKSRGLVVSNIYSRYDINELESGLMRVSQNKYSPDNYLFQEGQYLDKETLEKWLDRKSEKNPNGLNPESNGDGKDRKPIYLAHILEQDYLKQTDKDTVALGGISIALAMNSVDYYQKEQYGDTFEQEISDSDLLAQGKEMSGTVLNRIRQTKGLENVPVTIAIYKQGPRDAVAPGNFLTYATANGDSLSSWKDVEEKNYVLPSTESAKDHKTDNDNFLNFKKAIEDYYPNFTGVVGRARYEDGQLAELSIDIPLQFYGQAEIIGFTQYVTDLVGQHIPKTADLQVNISTSDGPAALITRKANEDAATAHIYD,failed

# Source: a protein production outcome set (Wang et al. 2014)
